Results as given in article PMC12822413.

Key:
[1] = biological target: TSHR on TSHR-293T cells (Homo sapiens) (UniProt P16473); assay: flow cytometry; settings: Flow: DPBS, 5 mM MgCl2, 4.5 g/L glucose, 0.1 mg/mL yeast tRNA, 1 mg/mL BSA, 4 C 30 min; SPR: DPBS, 5 mM Mg2+, pH 7.4, 25 C
[2] = biological target: endogenous TSHR on Graves' orbital fibroblasts (GOFs) (Homo sapiens) (UniProt P16473); assay: flow cytometry; settings: Flow: DPBS, 5 mM MgCl2, 4.5 g/L glucose, 0.1 mg/mL yeast tRNA, 1 mg/mL BSA, 4 C 30 min; SPR: DPBS, 5 mM Mg2+, pH 7.4, 25 C
Sequence of endogenous TSHR on Graves' orbital fibroblasts (GOFs) (Homo sapiens) (P16473 21-764): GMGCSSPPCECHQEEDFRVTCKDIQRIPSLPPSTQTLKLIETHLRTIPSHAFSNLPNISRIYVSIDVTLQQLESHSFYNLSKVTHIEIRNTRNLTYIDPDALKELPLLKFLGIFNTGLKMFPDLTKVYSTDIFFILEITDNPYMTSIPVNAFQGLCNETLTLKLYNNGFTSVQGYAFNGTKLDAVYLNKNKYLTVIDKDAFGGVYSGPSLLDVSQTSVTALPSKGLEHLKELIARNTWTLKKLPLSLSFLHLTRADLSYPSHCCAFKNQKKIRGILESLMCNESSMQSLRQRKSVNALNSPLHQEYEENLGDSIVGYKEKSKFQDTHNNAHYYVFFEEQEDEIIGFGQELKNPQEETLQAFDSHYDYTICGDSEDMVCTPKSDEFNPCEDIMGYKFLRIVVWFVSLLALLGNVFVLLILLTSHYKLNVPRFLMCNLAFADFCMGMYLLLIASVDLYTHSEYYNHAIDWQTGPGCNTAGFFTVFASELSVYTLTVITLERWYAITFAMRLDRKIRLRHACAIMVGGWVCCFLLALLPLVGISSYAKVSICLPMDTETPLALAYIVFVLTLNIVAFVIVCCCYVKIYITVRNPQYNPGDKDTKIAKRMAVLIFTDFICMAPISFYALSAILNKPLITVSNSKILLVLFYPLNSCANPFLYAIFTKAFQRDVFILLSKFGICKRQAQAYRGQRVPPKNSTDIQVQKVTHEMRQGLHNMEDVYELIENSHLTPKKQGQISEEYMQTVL

Sequence of TSHR on TSHR-293T cells (Homo sapiens) (P16473 21-764): as above

## ACCGACCGTGCTGGACTCAGATGAACAATCGATGGAAGATTGGGTCGCACCGGCCTCTTTCACTATGAGCGAGCCTGGCG [YC3]
[1]
  Kd: 260 nM
[2]
  Kd: 99.2 nM
